Results reported in the supplement of paper PMC9732359.
± gives the uncertainty stated by the source.

Test: protein stability index of a GFP-peptide fusion (yeast GPS) (PSI 1-4); higher = more stable; sorted into four equal gates, so the index is relative within each strain
Conditions: ubr1∆
Procedure, shortened: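 Plasmids in a pooled yeast library fused tiled 17-residue yeast protein peptides downstream of GFP and also expressed Cherry. Mid-log cultures grown without leucine were sorted into four equal gates by GFP/Cherry fluorescence ratio. Each gate's plasmids were PCR-amplified and Illumina-sequenced, and reads were matched to strains by barcodes. The protein stability index is derived by multiplying each gate's read frequency by its gate number and summing the results.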

| Sequence | protein stability index |
| --- | --- |
| DKKLNLNLPLQFSLPNG [SNF12] | 2.7 ± 0.075 |
| DKKNSSDPNNQSLNEMV [YJL039C/NUP192] | 3.35 ± 0.071 |
| DKKVLVKVQPEGKYIVD [RPT6] | 2.96 ± 0.062 |
| DKLDDDGLIAPGVRVSG [RPB2] | 1.71 ± 0.11 |
| DKLELYVLRNVLRIPEE [MTW1] | 3.41 ± 0.12 |
| DKLPQFVDENTFQRVCQ [RPN1] | 3.3 ± 0.078 |
| DKLWTLIPEDKRDQYLK [RPL28] | 3.18 ± 0.24 |
| DKLYIHFVQEEPLAFYL [RGR1] | 2.32 ± 0.033 |
| DKSIDTSSLQLYKFQNF [YML103C/NUP188] | 2.99 ± 0.055 |
| DLAFGGEANKHHWEDLQ [RPN5] | 3.21 ± 0.091 |
| DLALPPPPPPPPGYEIE [PRP8] | 2.95 ± 0.073 |
| DLDLNEQVRKMYQEWED [NSL1] | 2.92 ± 0.11 |
| DLDTVLKKDIESLRGIL [SRP72] | 1.61 ± 0.089 |
| DLEKTERIVVSYEYYNI [SMC2] | 2.67 ± 0.045 |
| DLESMGLTQLYKKSTEN [MED7] | 2.9 ± 0.047 |
| DLIAEQVVTDYNILGNL [SSN2] | 2.21 ± 0.063 |
| DLQKLLKGIQEFGADWY [SWI3] | 3.22 ± 0.053 |
| DLQNLNLNTDKLKNNAS [YJL039C/NUP192] | 2.5 ± 0.057 |
| DLRLGSQSLGVSNKFEK [PUP3] | 3.62 ± 0.13 |
| DLSLNITLHPSFFGPRM [RPB7] | 1.55 ± 0.074 |
| DLTLDDISLKADLERFF [YJL039C/NUP192] | 3.23 ± 0.039 |
| DLTNNPQDDDSQSKMMS [MTR3] | 3.31 ± 0.055 |
| DMANEIILSIDEHHESF [RRP6] | 2.9 ± 0.049 |
| DMDAQGRSDSNTEEKAE [YGL100W/SEH1] | 1.4 ± 0.041 |
| DMGMQQELCYPDENHDN [BRN1] | 3.33 ± 0.055 |
| DMNSNLQVLKRERDGIK [SMC1] | 2.78 ± 0.078 |
| DNCCDFKVRTNLNDKFG [MED1] | 3.08 ± 0.092 |

| Sequence | protein stability index |
| --- | --- |
| DNNITEMLEENFPEASK [YCG1] | 2.74 ± 0.052 |
| DNNNTTNNDSNNKNNSI [MED2] | 2.45 ± 0.034 |
| DNRTKSTTIKNIDILNR [SMC4] | 1.67 ± 0.08 |
| DNVSGLTRNAPLDSKDE [SNF2] | 3.13 ± 0.043 |
| DNWNAPLIMATCGSKGS [RPO31] | 2.43 ± 0.075 |
| DNWRREFLKWTPNVNVL [ISW2] | 2.31 ± 0.07 |
| DPDNTSFSDENSDDFFM [ESC2] | 1.5 ± 0.088 |
| DPDTKKVKESPANDQAS [YIL149C/MLP2] | 3.12 ± 0.093 |
| DPHSASLINSHLKILAS [RPC82] | 1.23 ± 0.059 |
| DPKLEKCLNYRNVNWIE [ITC1] | 2.95 ± 0.046 |
| DPLYDITKVPALEFLNT [REC8] | 2.62 ± 0.083 |
| DPPFRIEEQGWGGFPLD [TAF14] | 3.34 ± 0.047 |
| DPRIAPLRGALATYGLT [FAS2] | 2.04 ± 0.056 |
| DPSISNNIRQAICRYAN [RRP4] | 2.43 ± 0.056 |
| DPVEGNLEFDSTNHPDY [SRP14] | 2.95 ± 0.051 |
| DPYELKGEVVLVNIRTQ [ITC1] | 2.3 ± 0.099 |
| DQCVGQVGLNFELSFTG [YMR129W/POM152] | 2.97 ± 0.043 |
| DQDELVQPPLDKFPYKK [SWP82] | 3.08 ± 0.066 |
| DQKFGVPVRSFKGHSHI [ASC1] | 3.25 ± 0.058 |
| DQNNATMGEETAKKDMS [SNF12] | 3.32 ± 0.09 |
| DRELSVRNACKRLIAHD [YCG1] | 2.67 ± 0.18 |
| DRIYMLFHFEEDEGEEL [PRP8] | 1.93 ± 0.057 |
| DRSLADDYDYVMYGTAY [RPB8] | 2.73 ± 0.074 |
| DRVFNVPTIGVVNSNFA [YJR042W/NUP85] | 2.5 ± 0.036 |
| DSELNRALFETKLNLHC [RRI1] | 2.92 ± 0.055 |
| DSESESGDKEATAPLIQ [RPN8] | 3.49 ± 0.28 |
| DSIPLRITNSFYSTNSQ [RPN9] | 2.9 ± 0.21 |

| Sequence | protein stability index |
| --- | --- |
| DSKDGTTLNIKVEKRVL [SMB1] | 3.45 ± 0.27 |
| DSKMIQDLSRNTLGKGQ [SNU114] | 3.61 ± 0.14 |
| DSLENNEGVPSPMLSIS [FAS1] | 3.29 ± 0.094 |
| DSLIFKDSSLNYSSESY [YJL039C/NUP192] | 3.17 ± 0.14 |
| DSLNEWIKFDQELYNEL [RPN7] | 3.19 ± 0.073 |
| DSLNQLEIRNKICSSEM [RGR1] | 2.61 ± 0.22 |
| DSMLFVFGFRANKMRQD [SMC4] | 2.7 ± 0.057 |
| DSVLLNRGNKKRHRSSY [YML031W/NDC1] | 3.15 ± 0.076 |
| DSYIALYEKDIVPSMTH [RET1] | 2.65 ± 0.067 |
| DTKLKAHELQSEDVSRD [YIL149C/MLP2] | 2.86 ± 0.047 |
| DTLCGIRKLTLRDTFIE [RPO21] | 1.46 ± 0.056 |
| DTLKENATEVQKESDAK [ITC1] | 3.16 ± 0.26 |
| DTSRPDLEWQELTSFSS [DSN1] | 2.85 ± 0.042 |
| DTSTQAYEEEEENEDND [NUT1] | 3.39 ± 0.12 |
| DTVAELQAQLDYLNAEL [FAS2] | 2.96 ± 0.09 |
| DVAAKCKEVGITAVHVK [RPS14A] | 2.62 ± 0.041 |
| DVAFLKTAYSIYLSQNE [RPN1] | 2.64 ± 0.058 |
| DVEIGRMPIMLRSNKCI [RET1] | 1.07 ± 0.11 |
| DVHNGYILRYLHANGAS [COB] | 2.5 ± 0.079 |
| DVKCWSKFIEKFQDIVS [MED1] | 1.89 ± 0.1 |
| DVKSSDSLKLNSKPVEL [YJL041W/NSP1] | 3.23 ± 0.12 |
| DVNEKIRFRIEREVFVD [RPC25] | 1.2 ± 0.044 |
| DVNSASKSESDSQIVTP [RRP4] | 2.78 ± 0.1 |
| DVSIEELLREWLETYSE [IRR1] | 3.33 ± 0.047 |
| DVTALLEQGFKVVSAKE [YCS4] | 3.37 ± 0.16 |
| DVVERLHKNFESENFKI [RGR1] | 3.81 ± 0.18 |
| DVVMKATEPQMVLFNIY [PRP8] | 1.77 ± 0.043 |

| Sequence | protein stability index |
| --- | --- |
| DVYTLPSYVHFKVQIIE [YML103C/NUP188] | 1.66 ± 0.033 |
| DWIRFVSIRQNQYKLVF [RPL22B] | 1.26 ± 0.055 |
| DYFFYFLVLYDVKTAEE [NUT1] | 1.76 ± 0.04 |
| DYISGISVGLYDTTPLL [SKI6] | 2.26 ± 0.13 |
| DYPDDSGWTPFHIACSV [NAS6] | 2.27 ± 0.29 |
| DYRVLVDKSRKVAHTSY [PRE8] | 2.08 ± 0.095 |
| EAAAKEKDELDNIEVSK [QCR7] | 3.22 ± 0.055 |
| EAEFSLRELSCCINAAF [RRP46] | 2.97 ± 0.056 |
| EAFGNIKIDAKPALFER [MCD1] | 2.58 ± 0.078 |
| EAGEVKDDGAFVKFLSK [RPL10] | 3.61 ± 0.065 |
| EAGVTDVKVSISHDDLQ [FAS2] | 2.85 ± 0.047 |
| EALFQSRPDILSKIKFP [YCG1] | 3.13 ± 0.058 |
| EALSEKPTREPTPSVKT [RPC53] | 3.25 ± 0.089 |
| EANGATSFDRTKKTITP [RPL3] | 3.17 ± 0.27 |
| EAPFLTSGTSSEQFNVW [GAL11] | 3.21 ± 0.13 |
| EAQIKDWVENELEALKL [FAS2] | 2.01 ± 0.1 |
| EATQDDDFDMLFGENDT [NUT1] | 3.04 ± 0.062 |
| ECATCHGNLASCHGHFG [RPO31] | 3.04 ± 0.056 |
| ECKGCDNKIDIYQIHIP [RPB2] | 2.54 ± 0.032 |
| ECPGHFGHIDLAKPVFH [RPO21] | 2.92 ± 0.052 |
| EDDDNEQHEEKAAEGEE [QCR6] | 3.2 ± 0.072 |
| EDEAALAKLVSTIDANF [RPL8A] | 2.85 ± 0.05 |
| EDEENSDVLLFQLPTTC [RGR1] | 2.35 ± 0.024 |
| EDEGEERESSGAKDAEK [RPC17] | 3.65 ± 0.16 |
